The values that follow come from patent US20160024487.

The target of series [1] is T1, Lys(Dnp)-ATNATVFPRIVGG-Lys(Abz).
T1 chain: KATNATVFPRIVGGK

The target of series [2] is T2, Lys(Dnp)-ATNATIWPRIVGG-Lys(Abz).
T2 chain: KATNATIWPRIVGGK

In series [3] the target is T3, Lys(Dnp)-ATNATPYPRIVGG-Lys(Abz).
T3 chain: KATNATPYPRIVGGK

Series [4] addresses T4, Lys(Dnp)-ATNATLKPRIVGG-Lys(Abz).
T4 chain: KATNATLKPRIVGGK

The target in series [5] is T5, Lys(Dnp)-ATNATMYPRIVGG-Lys(Abz).
T5 chain: KATNATMYPRIVGGK

For series [6], the target named is T6, Lys(Dnp)-ATNATVWPRIVGG-Lys(Abz).
T6 chain: KATNATVWPRIVGGK

Series [7] concerns the target T7, Lys(Dnp)-ATNATWSPRIVGG-Lys(Abz).
T7 chain: KATNATWSPRIVGGK

The target of series [8] is T8, Lys(Dnp)-ATNATAVPRIVGG-Lys(Abz).
T8 chain: KATNATAVPRIVGGK

Series [9] concerns the target T9, Lys(Dnp)-ATNATVIPRIVGG-Lys(Abz).
T9 chain: KATNATVIPRIVGGK

Series [10] has as its target T10, Lys(Dnp)-ATNATFHPRIVGG-Lys(Abz).
T10 chain: KATNATFHPRIVGGK

In series [11] the target is T11, Lys(Dnp)-ATNATFTPRIVGG-Lys(Abz).
T11 chain: KATNATFTPRIVGGK

The target of series [12] is T12, Lys(Dnp)-ATNATFGPRIVGG-Lys(Abz).
T12 chain: KATNATFGPRIVGGK

Series [13] addresses T13, Lys(Dnp)-ATNATNRPRIVGG-Lys(Abz).
T13 chain: KATNATNRPRIVGGK

For series [14], the target named is T14, Lys(Dnp)-ATNATPTPRIVGG-Lys(Abz).
T14 chain: KATNATPTPRIVGGK

Series [15] deals with T15, Lys(Dnp)-ATNATRLPRIVGG-Lys(Abz).
T15 chain: KATNATRLPRIVGGK

Series [16] deals with T16, Lys(Dnp)-ATNATDHPRIVGG-Lys(Abz).
T16 chain: KATNATDHPRIVGGK

The target in series [17] is T17, Lys(Dnp)-ATNATANPRIVGG-Lys(Abz).
T17 chain: KATNATANPRIVGGK

The target of series [18] is T18, Lys(Dnp)-ATNATEMPRIVGG-Lys(Abz).
T18 chain: KATNATEMPRIVGGK

Series [19] addresses T19, Lys(Dnp)-ATNATHIPRIVGG-Lys(Abz).
T19 chain: KATNATHIPRIVGGK

Series [20] concerns the target T20, Lys(Dnp)-ATNATDTPRIVGG-Lys(Abz).
T20 chain: KATNATDTPRIVGGK

In series [21] the target is T21, Lys(Dnp)-ATNATTYPRIVGG-Lys(Abz).
T21 chain: KATNATTYPRIVGGK

Series [22] deals with T22, Lys(Dnp)-ATNATTKPRIVGG-Lys(Abz).
T22 chain: KATNATTKPRIVGGK

For series [23], the target named is T23, Lys(Dnp)-ATNATQHPRIVGG-Lys(Abz).
T23 chain: KATNATQHPRIVGGK

Series [24] deals with T24, Lys(Dnp)-ATNATHDPRIVGG-Lys(Abz).
T24 chain: KATNATHDPRIVGGK

Series [25] addresses T25, Lys(Dnp)-ATNATKMPRIVGG-Lys(Abz).
T25 chain: KATNATKMPRIVGGK

For series [26], the target named is T26, Lys(Dnp)-ATNATQFPRIVGG-Lys(Abz).
T26 chain: KATNATQFPRIVGGK

The target of series [27] is T27, Lys(Dnp)-ATNATNNPRIVGG-Lys(Abz).
T27 chain: KATNATNNPRIVGGK

For series [28], the target named is T28, Lys(Dnp)-ATNATNEPRIVGG-Lys(Abz).
T28 chain: KATNATNEPRIVGGK

The target of series [29] is T29, Lys(Dnp)-ATNATKSPRIVGG-Lys(Abz).
T29 chain: KATNATKSPRIVGGK

For series [30], the target named is T30, Lys(Dnp)-ATNATQDPRIVGG-Lys(Abz).
T30 chain: KATNATQDPRIVGGK

Series [31] addresses T31, Lys(Dnp)-ATNATQIPRIVGG-Lys(Abz).
T31 chain: KATNATQIPRIVGGK

The target of series [32] is T32, Lys(Dnp)-ATNATGWPRIVGG-Lys(Abz).
T32 chain: KATNATGWPRIVGGK

Series [33] concerns the target T33, Lys(Dnp)-ATNATLLPRIVGG-Lys(Abz).
T33 chain: KATNATLLPRIVGGK

In series [34] the target is T34, Lys(Dnp)-ATNATGTPRIVGG-Lys(Abz).
T34 chain: KATNATGTPRIVGGK

Series [35] has as its target T35, Lys(Dnp)-ATNATILPRIVGG-Lys(Abz).
T35 chain: KATNATILPRIVGGK

In series [36] the target is T36, Lys(Dnp)-ATNATQAPRIVGG-Lys(Abz).
T36 chain: KATNATQAPRIVGGK

Series [37] deals with T37, Lys(Dnp)-ATNATKAPRIVGG-Lys(Abz).
T37 chain: KATNATKAPRIVGGK

The target of series [38] is T38, Lys(Dnp)-ATNATLGPRIVGG-Lys(Abz).
T38 chain: KATNATLGPRIVGGK

Series [39] deals with T39, Lys(Dnp)-ATNATVRPRIVGG-Lys(Abz).
T39 chain: KATNATVRPRIVGGK

In series [40] the target is T40, Lys(Dnp)-ATNATRAPRIVGG-Lys(Abz).
T40 chain: KATNATRAPRIVGGK

Series [41] concerns the target T41, Lys(Dnp)-ATNATDLPRIVGG-Lys(Abz).
T41 chain: KATNATDLPRIVGGK

B1: Human plasma purified Factor Xa (protein)
chain 1: ANSFLEEMKKGHLERECMEETCSYEEAREVFEDSDKTNEFWNKYKDGDQCETSPCQNQGKCKDGLGEYTCTCLEGFEGKNCELFTRKLCSLDNGDCDQFCHEEQNSVVCSCARGYTLADNGKACIPTGPYPCGKQTLER
chain 2: IVGGQECKDGECPWQALLINEENEGFCGGTILSEFYILTAAHCLYQAKRFKVRVGDRNTEQEEGGEAVHEVEVVIKHNRFTKETYDFDIAVLRLKTPITFRMNVAPACLPERDWAESTLMTQKTGIVSGFGRTHEKGRQSTRLKMLEVPYVDRNSCKLSSSFIITQNMFCAGYDTKQEDACQGDSGGPHVTRFKDTYFVTGIVSWGEGCARKGKYGIYTKVTAFLKWIDRSMKTRGLPKAKSHAPEVITSSPLK
For the protein B1, the FXa kcat/KM in series [1] was 54 M⁻¹ s⁻¹; in series [2], 1500 M⁻¹ s⁻¹; in series [3], 83 M⁻¹ s⁻¹; in series [4] it was 72 M⁻¹ s⁻¹; in [5], 110 M⁻¹ s⁻¹; in series [6], 190 M⁻¹ s⁻¹. Moreover, the FXa kcat/KM in series [7] was found to be 52 M⁻¹ s⁻¹; in [8], 42 M⁻¹ s⁻¹; in [9] it was 120 M⁻¹ s⁻¹; in series [10] it was 150 M⁻¹ s⁻¹; in series [11] it was 49 M⁻¹ s⁻¹; in series [12], 100 M⁻¹ s⁻¹.

B2: Human plasma purified Factor Xa (Molecular Innovations, Inc) (protein)
chain 1: B1 chain 1
chain 2: B1 chain 2
Regarding B2, the FXa kcat/KM stood at 220 M⁻¹ s⁻¹ in series [13]; 840 M⁻¹ s⁻¹ in series [14]; 1400 M⁻¹ s⁻¹ in series [15]; 5 M⁻¹ s⁻¹ in series [16]; 78 M⁻¹ s⁻¹ in [17]; 13 M⁻¹ s⁻¹ in series [18]. Besides, the FXa kcat/KM turned out to be 78 M⁻¹ s⁻¹ in [19]; 6.4 M⁻¹ s⁻¹ in series [20]; 23 M⁻¹ s⁻¹ in series [21]; 14 M⁻¹ s⁻¹ in [22]; 550 M⁻¹ s⁻¹ in series [23]; 86 M⁻¹ s⁻¹ in series [24]. Moreover, the FXa kcat/KM in series [25] is 140 M⁻¹ s⁻¹; in series [26] it was 150 M⁻¹ s⁻¹; in series [27], 15 M⁻¹ s⁻¹; in series [28] it was 20 M⁻¹ s⁻¹; in series [29], 84 M⁻¹ s⁻¹; in series [30] it was 680 M⁻¹ s⁻¹. For the same protein, the FXa kcat/KM worked out at 630 M⁻¹ s⁻¹ in series [31]; 82 M⁻¹ s⁻¹ in [32]; 590 M⁻¹ s⁻¹ in series [33]; 59 M⁻¹ s⁻¹ in [34]; 700 M⁻¹ s⁻¹ in [35]; 410 M⁻¹ s⁻¹ in [36]. Also, the FXa kcat/KM came out at 52 M⁻¹ s⁻¹ in series [37]; 140 M⁻¹ s⁻¹ in series [38]; 430 M⁻¹ s⁻¹ in [39]; 2000 M⁻¹ s⁻¹ in series [40]; 27 M⁻¹ s⁻¹ in [41].
